{"source": "a protein production outcome set (Wang et al. 2014)"}
{"test": "label from the status in PepcDB records"}
{"sequence": "MVVSLCSPGKCRKGTIVSRASLRANEGRRIERSTIAPSDLPPFRSRVSQPELPVERADHDADSVADGGWQATLCALEALAGGVDEAAGTGDGRRLLWALTLDADGVVGTIEPLEQTHGARGWSKPRPVPLARVAEDDTLPQWDVRVARAIRRDASRNRRHVLDRAAAVVALVGHPAVVLSHAPTVPMEVVESAPSLEAVREGDRYVLRIVPPLREALAMEDFLPAAARQEAESLRQITVLQDGPRRLRVVRFTPAQQGAAKLIAGGLSVPADAQARLDSTLRALAGHFQIHADSSGEARERDPESRLRAEVAPVGRGISLRLVVTPLGVLGPRLAPGHGRAQLMATIGGETHVTYRDLDAEHAHVAEVFEALPFLVQQAPAGGEHTWTLDDPEDALTAIEVLPGLAGVIDLEWPRGRELRVLPADIAQLAVSVETGSEWFKLVGELRVAEGLVISLEKLVAWAHGHAGRFMPMAHGVYVALTRQLRDRLRDLAGVGDGVRDGIRVPLVAAPWLDDVLAGAGIDPDAHFRTRVKQLRAARGHDAPVPPTLVAELRPYQLEGFRWMMSLAEAGFGACLADDMGLGKTLQSLAVLLARAAGGPALVVAPTSVCGNWATEARRFAPALRVHVYADGDREAIVGQAAAHDLVIVSYNLLQQARKAFCDRHWHTVVADEAQSFKNPSSRRAQAMFALPADCRIALSGTPVENRLAELWAVMRFCVPGLLGSLARFNEHFANPIERSGARDPRQRLRRMIAPFVLRRTKAQVLDELPPRTELVIRVTPEPTEAAHYEALRRQALSEAERALLRPRKDKKAPAAMTEPEARIHVLAQLMRMRRAACDPRLVTPDVGQPGAKVRAFAELAATLAANGHKTLVFSQFVDFLQMLRQALVDAGLAWQYLDGATPAGERTRRVAAFQAGEGDVFLISLKAGGFGLNLTAADYIVIADPWWNPAAEDQAMGRAHRIGQQRPVTVYRLIAAGTIEERIVDLHQGKRALADGVLDAMDGEAIGRDVPLPDVDELVGLLRR", "protein production": "failed"}
{"sequence": "MVVTPLIVLLVSVLGYANLNSTELGKLKLNRLVPSRLAITLFISGTVILFGAVFATFLLLLLWGLITLVVSGSLSSAWVAMQTLTGSPGGVEPDKSSVLLLFTIGLVISFLSVTKFQSKADANWKQNNSKFLIHKLVDDELELFLLRALEMDDFIPHNGDESPDKRMLVRVVLSNRKVYIGNLIRCDITRGVCSNIVLVPMHSGYQDESTLELQLTEHYEKHYSAELSSDATELQIKDFLNQYSLTIPVHHLVTASLFDLTAYQKFLTEKLNSM", "protein production": "failed"}
{"sequence": "MVVVTGREPDSRRQDGAMSSSDAEDDFLEPATPTATQAGHALPLLPQEFPEVVPLNIGGAHFTTRLSTLRCYEDTMLAAMFSGRHYIPTDSEGRYFIDRDGTHFGDVLNFLRSGDLPPRERVRAVYKEAQYYAIGPLLEQLENMQPLKGEKVRQAFLGLMPYYKDHLERIVEIARLRAVQRKARFAKLKVCVFKEEMPITPYECPLLNSLRFERSESDGQLFEHHCEVDVSFGPWEAVADVYDLLHCLVTDLSAQGLTVDHQCIGVCDKHLVNHYYCKRPIYEFKITW", "protein production": "not failed"}
{"sequence": "MVWDRATPFVIDLNVGAEDIDGLGHANNAVYVSWLERCAWRHSQFLGLDLTEYQRLDRAMAVVRHEIDYLASAYESDELQLATWITDWDRRLKMTRCFQLKRPADNLTLLRAQTTFVCIELSSGRPKRMPAEFIEGYGAAIPLEHHHHHH", "protein production": "failed"}
{"sequence": "MVWGTFLKNKKPYSIKRQLTLSVGLLVSALLLISLYFSFQSAKHEVEEVYDARLGQSAKLMLLTLSISTETDTLANHRELFDQWMKNIDSLAKSDEDKATKFGHPYEQNLVFQFYRDNKLIWSSTPNLRSLSSSFYNNGYADITKDGVQWRTFQLSLPQTEHENEYVVVAEKQKIRKEIIHEIALSTSIEQLLLLPTLLLLLFWLIDRYFRPINDLRTAITQRNVHRLDRIHVTDNTTELAPLVEALNSLLSELEQAWQREKRFTRAAAHELKTPLTILRLNVENALESNDPEQLRGDLHNILQGIERTDRLIHQLLTLAKVDSLSERVFDNVELTPLLQTVVADLAPLALRQDQDISLSPAEVALSGDKMLLEVLFRNLVDNAIRYSGAHSEIQVSVQENRNAIKILISDTGPEIPQETRERIFEQFYRGHSEKGDGAGLGMSICKDIATLHSAIIELIPRENGKNTFVVAFPKH", "protein production": "failed"}
{"sequence": "MWAHCSAIARTMVYPSFFCSGDWLKVAAENLCPGDEAYILLAKDADDIRGVLPLVRKRNALGGTDLHYLGSDFYPDPLGLICSPADRADCAAALRNHLLNAPDWDRLILDFLLEDEPADWTLPGKPVSVAPFKVLPRDFSELLGEFKKKKRYNLRAMVKKLLDAGGELAASSGPESNIAYLDALFFLHEKRASERSLDSSFTGPRVQSLHRALVAASDNVRFFGLRLNGQMIAVIYGFEFCNRFFYYQVAHDPDHGHLSPGTVLLYLVIEACCVNGLTEFNFLQGDETYKGIWTNDSRILYRCVLNRSTWRSRVFSAVEESRGYVKRAMGLMSRGN", "protein production": "failed"}
{"sequence": "MWCGRNAPPRRIRRHTASKSASTAAKGGVRRACPGIVSITRPFDRTRYGSQIPPMPAISIIARTRRKDDHGRVPIRLRISHRGEKRFIALPVKVLAKKWNGDKRRVTGTHPDAGEINTFLSDLERAAFSVISRLERAGTLITAQRIKDEIQEEREEVKSAPEDFLAFAREKVKGYKRRGQIGTFRSYRTTCRKFTAFIEETYGRDEVPFGALEAELFREFRTYCYEERGNSTNTVGRELGIMRTLVRHAMKEGKLSAYPFEHITIDSEPSQKELLTPEEVERIADLEIDEESPAAEARRWFLFAYYAGGMRFSDVATLQWQHIREGRSGRPRVCYKMKKTADTVGVPLIPEAKEILCRYEEGDGEDWVFPISEGIDPGNEEALHRRKCQRNSAANRHLKELAGQAGIEKRVTFHLSRNAAAWKLYQNVGDIYKVSKFLGHSNVEQTQDYIDGFVDESRDEDFIAAMT", "protein production": "failed"}
{"sequence": "MWDLNIKESTMTRNGKAKRPLPLAASVAMYAIAIILAAATAIGNVYANKYSDLISVYFNQPTSKVVSASNETTEHFTSDYASDDEREQALADMGTTILREGVTLLKNENGTLPLEATSKISVFGQDSVDSVYGGGGAGSIDTSKAQSLMDAFEQAGFDVNPTLTEFYTTGAGKDYRKTSTDAYGKGTFAVNEVPASAYTDDVKKSFASYNDAAIVVIGRSGSESQDLPTDKLASGYTYLQLDDDERAMLKMASDNFDKVVVLLNTQNPMELADLEDDSIDAVMWIGSLGQTGAGGVAEALNGTVNPSGHLPDTYAYDLKSAPSSANFGSYAIVNGTDRFTSSYMAYAEGIYVGYRYYETRYEDVVLGNEARSNYDYTKQVAYPFGYGLSYTDFTWSDYSMKKADGGFDISVKVTNTGKTAGKDVVQLYMQSPYTDYDKANGIEKASVELVGYAKTDTLKAGASETVTVHVDQESMKTYDSTGEGTYIMDAGDYYLAVGTDAHNALNNILAAKGKTTADGMTENGNAALAAKHTVHSQDNTTYAKSAATDEKISNQFDDVDLTTYDNSFTYLSRSDWTGSWPATYADGKWTASQKFLDALNIDTAQSEPEQKPTTDTDNPSYGKLNASMLMDADYADESWSALIGQMSVKELDQLVRIGGYATKSVSSTQLPATTDKDGPAGISSTLVGGESGMGYPSEIVIAATWNSDLAESFGKAIGEDSLALKVAVWYGPACNIHRNPYGGRAFEYFSEDSYLSGAMCAKVVAGAGSKGVVSTVKHFALNDQETNRMGGAIFANEQTIRQLYLRPFEMSVRDGGATAMMASMNRIGSRWTGGHKGLMTNTLRGEWGFNGFVVTDQASYSVFAYEDLREGLEAGTDLWLNTDAGLWKLPDDDMTDGVIANMQRAAHNISYAISRSNAMNGLSANSKIVKVTPLWRWGVYALDGVVTVGAVALIAIATLQILRRRKRDATVAAETGEPAANDGE", "protein production": "failed"}
{"sequence": "MWDVIVVGGGPSGLSAALFLARAGLKVLVLDGGRSKVKGVSRVPNYPGLLDEPSGEELLRRLEAHARRYGAEVRPGVVKGVRDMGGVFEVETEEGVEKAERLLLCTHKDPTLPSLLGLTRRGAYIDTDEGGRTSYPRVYAAGVARGKVPGHAIISAGDGAYVAVHLVSDLRGEPYKDHAL", "protein production": "not failed"}
{"sequence": "MWEIYDAMINGIPEDFLVDELVCGTTHSVIRSGNGVGLGPNRPFETRMPMLTQNLLGLPLRVAAGCVKSWNYVEASIGLAAINAYYNNPQVAREHGVIFSDAKRVEDRMNDPFIMSQNEVKGKKVGVVGHFPHLESLLEPICDLSILEWSPEEGDYPLPASEFILPECDYVYITCASVVDKTLPRLLELSRNARRITLVGPGTPLAPVLFEHGLQELSGFMVKDNARAFRIVAGAEKVKIYSAGQKVTIKK", "protein production": "not failed"}
{"sequence": "MWIAVSAVNLALAVILGAFGAHGLKAYASPAKLAWWQTATDYFFYHALGLLVLGVISKTYTVLPIKSSFILIQIGILFFCGSLYLMALGLPRGFGAITPIGGAFMILGWIVLAWNAVKYAK", "protein production": "failed"}
{"sequence": "MWIGSVFMRKSFVISLLSAGILLAGCQAVNTTSGGAVGVERQQYMFSMLSTDEVNQMYAQSYQQTLGEASSKGVLDKSSADAKRVQAIANRLIAQAPKFRPDAAQWDWQVNVIKSDELNANCGPGGKIIVYTGLIDQLKLTDAEIAAVVGHEIAHALREHSREAMSKAYGVEMARQGAGAIFGLGQSSMAMADTVVNYAMTLPNSRANENEADLIGLELSARAGYDPNAAITLWNKMSKASEGAPPEFMSTHPASASRIASLQAAIPKVMPLYQAAAKP", "protein production": "failed"}
{"sequence": "MWKHVKQVDPEIYEVLVNELKRQEYGLELIASENFASLAVIETMGSMLTNKYAEGYPKKRYYGGCEWVDRAEERAIERAKRLFGAKFANVQPHSGSQANMAVYLALAQPGDTIMGMSLSHGGHLTHGAPVNFSGKIFKVVPYGVNLETETIDYDEVRRLALEHKPKIIVAGGSAYARIIDFKRFREIADEVGAYLMVDMAHFAGLVAAGIHPNPLEYAHVVTSTTHKTLRGPRGGLILTNDPEIAKAVDKTIFPGIQGGPLMHVIAAKAVCFKEAMTEEFKEYQKQVVKNAKKMAEEFQKRGYRIVSGGTDTHLFLVDLTPKDITGKAAEKALESCGITVNKNTIPNEKRSPFVASGIRIGTPAVTTRGMKEEEMEEIAEMIDLVLSNVIDENGTVKPEVREEVSKKVRELCERFPLYRDKIEGVEI", "protein production": "not failed"}
{"sequence": "MWKRMTAKAEGLYIADTKSFVTKQMDKLDFDYGGIPGDLHFGLTKKAGAREPMFSRGTEIFNRRQISIVSIEECNEIALKMGVPRILPEWLGANVAVSGMPDLTSLKEGSRIIFPSGAALLCEGENDPCIQPGEVIQSYYPDQPKLASAFVRHALGIRGIVCIVERPGAVYTGDEIEVHSYQRKVKRKAERV", "protein production": "not failed"}
{"sequence": "MWLSEFEIVLRDRVIPNGAVRIEDGRIAEIRDRPVAHADIDGGGRLLLPGFIDMHGDMVEREVEPRIGVHVPMRIGIAELDKKLASCGITTAYAALSFIGASVTSGVLRSEDHTTEIIDTIAGMKDHLLVDHRTHARFEVTFTPAIPTLQKLMDAGRLDLISLMDHTPGQGQYRDVELYIARIAKERGMSVAAASEVVGKRMAGREGQGNVLNALQDLSARARAAGIVLASHDDDTLEKVELVHGLGAALSEFPVTLEAAQEARRLGMHTAMGAPNALRGESYSGNLSARQAYQAGLLDMLASDYHPASILPAVLGLAELRGDGLAAAAALTSANPANALGLTDRGAVEPGLLADFVVADRYPVPRVRATFRAGRMIYGDGTLALAGKAERLGPVAAERLPAA", "protein production": "failed"}
